Read-outs that look alike come from different tables or passages of the source.
How the values were obtained:
Type in all cases: binding
[1] = system: SARS-CoV-2 gRNA and sgRNAs; conditions: for target (unweighted spectral count in RNP capture): Probe II capture, LC-MS/MS LFQ; for background (unweighted spectral count in control): no-probe control pull-down, used as background for Probe II; for target (unweighted spectral count of the protein in the RNP capture experiment): LC-MS/MS label-free quantification, probe pool not given; for back-ground (unweighted spectral count of the protein in the control experiment): protein background of the control (e.g. no-probe) experiment
gRNA of HCoV-OC43 = conditions: type n_48_v: 48 hours post-infection; for target (spectral count, OC43 Probe I RNP capture): infected cells, unweighted spectral count; for background (spectral count, no-probe control): no-probe control on infected cells
HCoV-OC43 gRNA and sgRNA = conditions: for target (unweighted spectral count, OC43 Probe II capture): type n_36_v, FDR<10%; for target (unweighted spectral count, OC43 Probe II capture) / target (unweighted spectral count): tested against no-probe control; for target (unweighted spectral count): OC43 Probe II, infected cells; for target (unweighted spectral count, OC43 Probe II) / background (unweighted spectral count, no-probe control): type n_48_v, 48 hpi; for target (unweighted spectral count, OC43 Probe II): OC43 Probe II capture on infected cells; for background (unweighted spectral count, no-probe control): no-probe control on infected cells
SARS-CoV-2 gRNA = conditions: […]; LC-MS/MS; Probe I sample (first 199 lines of Table 2)

B1: UBAP2L (protein, UniProt Q14157 1-1087, looked up)
Ubiquitin-associated protein …: MMTSVGTNRARGNWEQPQNQNQTQHKQRPQATAEQIRLAQMISDHNDADFEEKVKQLIDITGKNQDECVIALHDCNGDVNRAINVLLEGNPDTHSWEMVGKKKGVSGQKDGGQTESNEEGKENRDRDRDYSRRRGGPPRRGRGASRGREFRGQENGLDGTKSGGPSGRGTERGRRGRGRGRGGSGRRGGRFSAQGMGTFNPADYAEPANTDDNYGNSSGNTWNNTGHFEPDDGTSAWRTATEEWGTEDWNEDLSETKIFTASNVSSVPLPAENVTITAGQRIDLAVLLGKTPSTMENDSSNLDPSQAPSLAQPLVFSNSKQTAISQPASGNTFSHHSMVSMLGKGFGDVGEAKGGSTTGSQFLEQFKTAQALAQLAAQHSQSGSTTTSSWDMGSTTQSPSLVQYDLKNPSDSAVHSPFTKRQAFTPSSTMMEVFLQEKSPAVATSTAAPPPPSSPLPSKSTSAPQMSPGSSDNQSSSPQPAQQKLKQQKKKASLTSKIPALAVEMPGSADISGLNLQFGALQFGSEPVLSDYESTPTTSASSSQAPSSLYTSTASESSSTISSNQSQESGYQSGPIQSTTYTSQNNAQGPLYEQRSTQTRRYPSSISSSPQKDLTQAKNGFSSVQATQLQTTQSVEGATGSAVKSDSPSTSSIPPLNETVSAASLLTTTNQHSSSLGGLSHSEEIPNTTTTQHSSTLSTQQNTLSSSTSSGRTSTSTLLHTSVESEANLHSSSSTFSTTSSTVSAPPPVVSVSSSLNSGSSLGLSLGSNSTVTASTRSSVATTSGKAPPNLPPGVPPLLPNPYIMAPGLLHAYPPQVYGYDDLQMLQTRFPLDYYSIPFPTPTTPLTGRDGSLASNPYSGDLTKFGRGDASSPAPATTLAQPQQNQTQTHHTTQQTFLNPALPPGYSYTSLPYYTGVPGLPSTFQYGPAVFPVAPTSSKQHGVNVSVNASATPFQQPSGYGSHGYNTGVSVTSSNTGVPDISGSVYSKTQQSFEKQGFHSGTPAASFNLPSALGSGGPINPATAAAYPPAPFMHILTPHQQPHSQILHHHLQQDGQTGSGQRSQTSSIPQKPQTNKSAYNSYSWGAN
target (unweighted spectral count in RNP capture) [1]: 17
background (unweighted spectral count in control) [1]: 1
target (spectral count, OC43 Probe I RNP capture) (gRNA of HCoV-OC43): 6
background (spectral count, no-probe control) (gRNA of HCoV-OC43): 1
target (unweighted spectral count, OC43 Probe II capture) (HCoV-OC43 gRNA and sgRNA; 36 hpi): 5

B2: SYNCRIP: host protein, UniProt O60506 (protein, UniProt O60506 2-623, looked up)
Heterogeneous nuclear …: ATEHVNGNGTEEPMDTTSAVIHSENFQTLLDAGLPQKVAEKLDEIYVAGLVAHSDLDERAIEALKEFNEDGALAVLQQFKDSDLSHVQNKSAFLCGVMKTYRQREKQGTKVADSSKGPDEAKIKALLERTGYTLDVTTGQRKYGGPPPDSVYSGQQPSVGTEIFVGKIPRDLFEDELVPLFEKAGPIWDLRLMMDPLTGLNRGYAFVTFCTKEAAQEAVKLYNNHEIRSGKHIGVCISVANNRLFVGSIPKSKTKEQILEEFSKVTEGLTDVILYHQPDDKKKNRGFCFLEYEDHKTAAQARRRLMSGKVKVWGNVGTVEWADPIEDPDPEVMAKVKVLFVRNLANTVTEEILEKAFSQFGKLERVKKLKDYAFIHFDERDGAVKAMEEMNGKDLEGENIEIVFAKPPDQKRKERKAQRQAAKNQMYDDYYYYGPPHMPPPTRGRGRGGRGGYGYPPDYYGYEDYYDYYGYDYHNYRGGYEDPYYGYEDFQVGARGRGGRGARGAAPSRGRGAAPPRGRAGYSQRGGPGSARGVRGARGGAQQQRGRGVRGARGGRGGNVGGKRKADGYNQPDSKRRQTNNQNWGSQPIAQQPLQGGDHSGNYGYKSENQEFYQDTFGQQWK
target (unweighted spectral count in RNP capture) [1]: 159
background (unweighted spectral count in control) [1]: 1
target (spectral count, OC43 Probe I RNP capture) (gRNA of HCoV-OC43): 88
background (spectral count, no-probe control) (gRNA of HCoV-OC43): 7
target (unweighted spectral count, OC43 Probe II capture) (HCoV-OC43 gRNA and sgRNA; 36 hpi): 97
target (unweighted spectral count) (HCoV-OC43 gRNA and sgRNA; 12 hpi (type n_12_v)): 33
target (unweighted spectral count) (HCoV-OC43 gRNA and sgRNA; 24 hpi (type n_24_v)): 55
target (unweighted spectral count, OC43 Probe II) (HCoV-OC43 gRNA and sgRNA): 87
background (unweighted spectral count, no-probe control) (HCoV-OC43 gRNA and sgRNA): 7
target (spectral count) (HCoV-OC43 gRNA and sgRNA; type s_36_m, HCoV-OC43-infected HCT-8 cells, 36 hpi, Probe II): 97
background (spectral count) (HCoV-OC43 gRNA and sgRNA; type s_36_m, uninfected-probe control, 36 hpi, Probe II): 23

B3: RPUSD3 (protein, UniProt Q6P087 26-351, looked up)
Mitochondrial mRNA …: LGVRPVPEDAGFGTEARHQRQPRGSCQRSGPLGDQPFAGLLPKNLSREELVDALRAAVVDRKGPLVTLNKPQGLPVTGKPGELTLFSVLPELSQSLGLREQELQVVRASGKESSGLVLLSSCPQTASRLQKYFTHARRAQRPTATYCAVTDGIPAASEGKIQAALKLEHIDGVNLTVPVKAPSRKDILEGVKKTLSHFRVVATGSGCALVQLQPLTVFSSQLQVHMVLQLCPVLGDHMYSARVGTVLGQRFLLPAENNKPQRQVLDEALLRRLHLTPSQAAQLPLHLHLHRLLLPGTRARDTPVELLAPLPPYFSRTLQCLGLRLQ
target (unweighted spectral count of the protein in the RNP capture) (SARS-CoV-2 gRNA): 7

B4: HNRNPC (protein, UniProt P07910 2-306, looked up)
Heterogeneous nuclear …: ASNVTNKTDPRSMNSRVFIGNLNTLVVKKSDVEAIFSKYGKIVGCSVHKGFAFVQYVNERNARAAVAGEDGRMIAGQVLDINLAAEPKVNRGKAGVKRSAAEMYGSVTEHPSPSPLLSSSFDLDYDFQRDYYDRMYSYPARVPPPPPIARAVVPSKRQRVSGNTSRRGKSGFNSKSGQRGSSKSGKLKGDDLQAIKKELTQIKQKVDSLLENLEKIEKEQSKQAVEMKNDKSEEEQSSSSVKKDETNVKMESEGGADDSAEEGDLLDDDDNEDRGDDQLELIKDDEKEAEEGEDDRDSANGEDDS
target (unweighted spectral count in RNP capture) [1]: 75
background (unweighted spectral count in control) [1]: 2
background (spectral count, no-probe control) (gRNA of HCoV-OC43): 19
target (unweighted spectral count, OC43 Probe II capture) (HCoV-OC43 gRNA and sgRNA; 36 hpi): 69
target (unweighted spectral count) (HCoV-OC43 gRNA and sgRNA; 12 hpi (type n_12_v)): 30
target (unweighted spectral count) (HCoV-OC43 gRNA and sgRNA; 24 hpi (type n_24_v)): 40
target (unweighted spectral count, OC43 Probe II) (HCoV-OC43 gRNA and sgRNA): 88
background (unweighted spectral count, no-probe control) (HCoV-OC43 gRNA and sgRNA): 19

B5: DHX30 (protein, UniProt Q7L2E3 1-1194, looked up)
ATP-dependent RNA helicase …: MFSLDSFRKDRAQHRQRQCKLPPPRLPPMCVNPTPGGTISRASRDLLKEFPQPKNLLNSVIGRALGISHAKDKLVYVHTNGPKKKKVTLHIKWPKSVEVEGYGSKKIDAERQAAAAACQLFKGWGLLGPRNELFDAAKYRVLADRFGSPADSWWRPEPTMPPTSWRQLNPESIRPGGPGGLSRSLGREEEEDEEEELEEGTIDVTDFLSMTQQDSHAPLRDSRGSSFEMTDDDSAIRALTQFPLPKNLLAKVIQIATSSSTAKNLMQFHTVGTKTKLSTLTLLWPCPMTFVAKGRRKAEAENKAAALACKKLKSLGLVDRNNEPLTHAMYNLASLRELGETQRRPCTIQVPEPILRKIETFLNHYPVESSWIAPELRLQSDDILPLGKDSGPLSDPITGKPYVPLLEAEEVRLSQSLLELWRRRGPVWQEAPQLPVDPHRDTILNAIEQHPVVVISGDTGCGKTTRIPQLLLERYVTEGRGARCNVIITQPRRISAVSVAQRVSHELGPSLRRNVGFQVRLESKPPSRGGALLFCTVGILLRKLQSNPSLEGVSHVIVDEVHERDVNTDFLLILLKGLQRLNPALRLVLMSATGDNERFSRYFGGCPVIKVPGFMYPVKEHYLEDILAKLGKHQYLHRHRHHESEDECALDLDLVTDLVLHIDARGEPGGILCFLPGWQEIKGVQQRLQEALGMHESKYLILPVHSNIPMMDQKAIFQQPPVGVRKIVLATNIAETSITINDIVHVVDSGLHKEERYDLKTKVSCLETVWVSRANVIQRRGRAGRCQSGFAYHLFPRSRLEKMVPFQVPEILRTPLENLVLQAKIHMPEKTAVEFLSKAVDSPNIKAVDEAVILLQEIGVLDQREYLTTLGQRLAHISTDPRLAKAIVLAAIFRCLHPLLVVVSCLTRDPFSSSLQNRAEVDKVKALLSHDSGSDHLAFVRAVAGWEEVLRWQDRSSRENYLEENLLYAPSLRFIHGLIKQFSENIYEAFLVGKPSDCTLASAQCNEYSEEEELVKGVLMAGLYPNLIQVRQGKVTRQGKFKPNSVTYRTKSGNILLHKSTINREATRLRSRWLTYFMAVKSNGSVFVRDSSQVHPLAVLLLTDGDVHIRDDGRRATISLSDSDLLRLEGDSRTVRLLKELRRALGRMVERSLRSELAALPPSVQEEHGQLLALLAELLRGPCGSFDVRKTADD
target (unweighted spectral count of the protein in the RNP capture) (SARS-CoV-2 gRNA): 13

B6: CHTOP (protein, UniProt Q9Y3Y2 2-248, looked up)
Chromatin target of PRMT1 …: AAQSAPKVVLKSTTKMSLNERFTNMLKNKQPTPVNIRASMQQQQQLASARNRRLAQQMENRPSVQAALKLKQSLKQRLGKSNIQARLGRPIGALARGAIGGRGLPIIQRGLPRGGLRGGRATRTLLRGGMSLRGQNLLRGGRAVAPRMGLRRGGVRGRGGPGRGGLGRGAMGRGGIGGRGRGMIGRGRGGFGGRGRGRGRGRGALARPVLTKEQLDNQLDAYMSKTKGHLDAELDAYMAQTDPETND
target (unweighted spectral count of the protein in the RNP capture experiment) [1]: 5
back-ground (unweighted spectral count of the protein in the control experiment) [1]: 1
target (spectral count, OC43 Probe I RNP capture) (gRNA of HCoV-OC43): 6
background (spectral count, no-probe control) (gRNA of HCoV-OC43): 1
target (unweighted spectral count, OC43 Probe II capture) (HCoV-OC43 gRNA and sgRNA; 36 hpi): 5
target (unweighted spectral count, OC43 Probe II) (HCoV-OC43 gRNA and sgRNA): 6
background (unweighted spectral count, no-probe control) (HCoV-OC43 gRNA and sgRNA): 1

B7: SRSF9 (protein, UniProt Q13242 1-221, looked up)
Serine/arginine-rich splicing …: MSGWADERGGEGDGRIYVGNLPTDVREKDLEDLFYKYGRIREIELKNRHGLVPFAFVRFEDPRDAEDAIYGRNGYDYGQCRLRVEFPRTYGGRGGWPRGGRNGPPTRRSDFRVLVSGLPPSGSWQDLKDHMREAGDVCYADVQKDGVGMVEYLRKEDMEYALRKLDDTKFRSHEGETSYIRVYPERSTSYGYSRSRSGSRGRDSPYQSRGSPHYFSPFRPY
target (unweighted spectral count of the protein in the RNP capture) (SARS-CoV-2 gRNA): 6

B8: PURB (protein, UniProt Q96QR8 2-312, looked up)
Transcriptional regulator …: ADGDSGSERGGGGGPCGFQPASRGGGEQETQELASKRLDIQNKRFYLDVKQNAKGRFLKIAEVGAGGSKSRLTLSMAVAAEFRDSLGDFIEHYAQLGPSSPEQLAAGAEEGGGPRRALKSEFLVRENRKYYLDLKENQRGRFLRIRQTVNRGGGGFGAGPGPGGLQSGQTIALPAQGLIEFRDALAKLIDDYGGEDDELAGGPGGGAGGPGGGLYGELPEGTSITVDSKRFFFDVGCNKYGVFLRVSEVKPSYRNAITVPFKAWGKFGGAFCRYADEMKEIQERQRDKLYERRGGGSGGGEESEGEEVDED
target (unweighted spectral count of the protein in the RNP capture experiment) [1]: 5
back-ground (unweighted spectral count of the protein in the control experiment) [1]: 1
target (spectral count, OC43 Probe I RNP capture) (gRNA of HCoV-OC43): 5
background (spectral count, no-probe control) (gRNA of HCoV-OC43): 1
target (unweighted spectral count, OC43 Probe II) (HCoV-OC43 gRNA and sgRNA): 5
background (unweighted spectral count, no-probe control) (HCoV-OC43 gRNA and sgRNA): 1
